Substrate: [H][C@]12SCC(COC(C)=O)=C(C(=O)O)N1C(=O)[C@H]2NC(=O)CCC[C@@H](N)C(=O)O
Experiment: CPC hydrolysis kinetics (Lineweaver-Burk plot), wild-type CPC acylase AcyII
Format: biochemical, Pseudomonas sp. SE83
Details: other: substrate CPC, purified enzyme, 0.1 M Tris-HCl pH 8.0, 37° C.
Procedure: The enzyme activity of CPC acylase mutant to CPC was measured according to the method described by Park et al. with minor modifications as follows (Park, et al., Kor. J. Appl. Microbiol. Biotechnol. 23: 559-564, 1995). A substrate solution was prepared by dissolving CPC (purity 74.2%; CJ Corp., Korea) in 0.1 M Tris-HCl buffer solution (pH 8.0) at a concentration of 20 mg/ml and adjusting pH to 8 with 1 N NaOH. 20 μl of the CPC solution was mixed with 20 μl of the crude enzyme solution prepared above and the reaction mixture was incubated at 37° C. for 5 min. After the reaction, the mixture (200 μl) of 50 mM NaOH and 20% glacial acetic acid (1:2) was added thereto to stop the reaction. 200 μl of the supernatant recovered from the reaction mixture by centrifugation was mixed with 40 μl of 0.5% (w/v) PDAB (p-dimethylaminobenzaldehyde; Sigma, USA) dissolved in a methanol and the reaction mixture was incubated at 37° C. for 10 min. After the reaction, the absorbance of reaction mixture was measured at 415 nm and quantified by comparing with a calibration curve of standard material. At this time, 1 unit has been defined as the amount of enzyme capable to produce 1 μmole of 7-ACA from CPC per minute. Meanwhile, the specific activity of CPC acylase mutant for CPC was determined by measuring the amount of protein remaining in the enzyme solution according to the method described by Bradford (Bradford, M., Anal. Biochem. 72: 248-254, 1976) and representing it as an active unit corresponding to 1 mg of protein. The reactivity of CPC acylase mutant to CPC was determined by the following steps of adding the same amount of protein to a reaction mixture, performing an enzyme reaction for a fixed time, measuring the amount of 7-ACA produced in the reaction mixture, and representing it as a relative value. The end-product inhibition by 7-ACA was determined by adding a protein corresponding to the same active unit to a reaction mixture, performing an enzyme reaction for a fixed time; measuring the amount of 7-ACA produced in the reaction mixture, and representing it as a relative value. […]

B1: Pseudomonas sp. SE83 CPC acylase AcyII, wild type, SEQ ID NO: 2 (alpha-subunit SEQ ID NO: 4, beta-subunit SEQ ID NO: 5) (Pseudomonas sp. SE83) (protein)
chain 1: TMAAKTDREALQAALPPLSGSLSIPGLSAPVRVQRDGWGIPHIKASGEADAYRALGFVHAQDRLFQMELTRRKALGRAAEWLGAEAAEADILVRRLGMEKVCRRDFEALGAEAKDMLRAYVAGVNAFLASGAPLPIEYGLLGAEPEPWEPWHSIAVMRRLGLLMGSVWFKLWRMLALPVVGAANALKLRYDDGGQDLLCIPPGVEAERLEADLAALRPAVDALLKAMGG
chain 2: SNNWAVAPGRTATGRPILAGDPHRVFEIPGMYAQHHLACDRFDMIGLTVPGVPGFPHFAHNGKVAYCVTHAFMDIHDLYLEQFAEDGRTARFGNEFEPVAWRRDRIAVRGGADREFDIVETRHGPVIAGDPLEGAALTLRSVQFAETDLSFDCLTRMPGASTVAQLYDATRGWGLIDHNLVAGDVAGSIGHLVRARVPSRPRENGWLPVPGWSGEHEWRGWIPHEAMPRVIDPPGGLIVTANNRVVADDHPDYLCTDCHPPYRAERIMERLVASPAFAVDDAAAIHADTLSPHVGLLRARLEALGIQGSLPAEELRQTLIAWDGRMDAGSQAASAYNAFRRALTRLVTARSGLEQAIAHPFAAVPPGVSPQGQVWWAVPTLLRNDDAGMLKGWSWDEALSEALSVATQNLTGRGWGEEHRPRFTHPLSAQFPAWAALLNPVSRPIGGDGDTVLANGLVPSAGPEATYGALSRYVFDVGNWDNSRWVVFHGASGHPASPHYADQNAPWSDCAMVPMLYSWDRIAAEAVTSQELVPA
notes: made in house; host or cells: E. coli MC1061
Km: 50 mM
kcat: 0.9 s⁻¹
kcat/Km: 20 M⁻¹ s⁻¹

Reference: patent publication US7592168B2, “Cephalosporin C acylase mutant and method for preparing 7-ACA using same” (Sandoz AG, priority 2003, dated 2009)
